Data published in US20070202116A1, “Treatment of micro-organism infection” (priority 2001, published 2007).

What was measured:
[1] = Storage stability and iv fluid compatibility of Aurograb; type: physicochemical
Description: The lyophilised drug is stored in glass vials at 4° C. in the dark. Overnight transport at ambient temperatures is acceptable. Avoid prolonged exposure to bright light or excessive humidity. No change in Aurograb activity after storage at 4° C. (3 months) has been observed.
After reconstitution with water, Aurograb must be stored at 4° C. and should be used within 14 hours.
Saline for iv use is compatible with reconstituted Aurograb (at a 50:50 dilution).

[2] = mice
Description: The pharmacokinetic (PK) characteristics of Aurograb have been studied in mice. A murine model was used because efficacy and dose ranging studies have been performed in this species as were the repeat dose toxicology studies. Mice were given a single high dose as an iv bolus and then examined in duplicate for blood levels and organ distribution. Urine samples were also analysed. Samples were analysed for functional activity, measured by ELISA (blood samples only) and drug concentration (SDS PAGE/immunoblots).

EMRSA-15 = assay: Data Set 2: Aurograb dose ranging study in infected mice; type: in vivo, S. aureus; details: for Kidney log cfu per gram of tissue / Liver log cfu per gram of tissue / Spleen log cfu per gram of tissue: 48 hours; for Reduction in kidney bacterial counts: Experiment 1
Description: Aims: Dose ranging study for use of Aurograb versus S. aureus strain EMRSA-15.
Dose range is determined by comparing cfu (expressed as the log of the cfu per gram of tissue) for different organs at different doses.
[…] All mice terminated at 48 hours for culture of kidney, liver and spleen to determine organ viability counts.
Results: expressed as log cfu per gram of tissue
Experiment 1: S. aureus (1.5×10^7 cfu): EMRSA-15 (Table 5)
Experiment 2: S. aureus (9×10^6 cfu): clinical isolate EMRSA-15—low dose Aurograb (Table 6)

[3] = Experiment 1, 1.5×10^7 cfu EMRSA-15, Aurograb 0.2 mg/kg single iv dose
[4] = Experiment 1, 1.5×10^7 cfu EMRSA-15, Aurograb 1 mg/kg single iv dose
[5] = Experiment 1, 1.5×10^7 cfu EMRSA-15, Aurograb 2 mg/kg single iv dose
[6] = Experiment 2, 9×10^6 cfu clinical isolate EMRSA-15, Aurograb 0.2 mg/kg
[7] = Experiment 2, doses as low as 0.2 mg

B1: Aurograb: human genetic recombinant antibody (scFv with histidine tag, SEQ ID NO: 2) binding GrfA, a staphylococcal ABC transporter protein (protein)
scFv: MAKVQLLQSATEVKKPGASVKVSCKAYGYTFTDYGITWVRQAPGQGLEWMGWISAYNGYTNYAQKFQDRITMTTDASTSTAYMELRSLRPDDTAVLYCARDREDASLLRDGHWGQGTLVTVSSGGGGSGGGGSGGGGSGGGGSETTLTQSPGTLSLSPGERATLSCRASQIVSSSYLAWYQQKPGQAPRLLIYGASSRATGIPDRFSGSGSGTDFTLTISKLEPEDFAVYYCQHYGSSSPWTSRPRDQSDIKRAAALEHHHHHH
modifications: histidine tag; human single chain (scFv) recombinant antibody
- Activity after reconstitution with water ([1]; left at room temperature): slowly deteriorate
- Change in activity after storage ([1]; lyophilised drug, 4° C., 3 months): No change
- Compatibility with saline for iv use ([1]; reconstituted Aurograb, 50:50 dilution): compatible
- Compatibility with 20% glucose and sodium bicarbonate buffer ([1]; reconstituted Aurograb, reduction in ELISA activity): less compatible
- Time by which all organs were cleared ([2]; lungs, brain, liver, spleen, heart, kidney and blood): ≤ 24 h
- Blood levels ([2]; single intravenous bolus injection 10 mg/kg): satisfactory blood levels
- Kidney log cfu per gram of tissue (EMRSA-15; [3]): 8.5 ± 2.55 log cfu per gram of tissue
- Liver log cfu per gram of tissue (EMRSA-15; [3]): 6.61 ± 3.03 log cfu per gram of tissue
- Spleen log cfu per gram of tissue (EMRSA-15; [3]): 5.69 ± 1.16 log cfu per gram of tissue
- Kidney log cfu per gram of tissue (EMRSA-15; [4]): 8.7 ± 2.6 log cfu per gram of tissue
- Liver log cfu per gram of tissue (EMRSA-15; [4]): 5.40 ± 1.38 log cfu per gram of tissue
- Spleen log cfu per gram of tissue (EMRSA-15; [4]): 5.33 ± 1.21 log cfu per gram of tissue
- Kidney log cfu per gram of tissue (EMRSA-15; [5]): 7.62 ± 1.16 log cfu per gram of tissue
- Liver log cfu per gram of tissue (EMRSA-15; [5]): 5.22 ± 1.39 log cfu per gram of tissue
- Spleen log cfu per gram of tissue (EMRSA-15; [5]): 5.10 ± 1.29 log cfu per gram of tissue
- Reduction in kidney bacterial counts (EMRSA-15; highest dose (2.0 mg/kg)): 0.8 log
- Reduction in kidney bacterial counts (EMRSA-15; lower doses): no reduction
- Kidney log cfu per gram of tissue (EMRSA-15; [6]): 7.14 ± 1.28 log cfu per gram of tissue
- Liver log cfu per gram of tissue (EMRSA-15; [6]): 3.13 ± 0.44 log cfu per gram of tissue
- Spleen log cfu per gram of tissue (EMRSA-15; [6]): 3.40 ± 0.64 log cfu per gram of tissue
- Bacterial killing in the liver and spleen (EMRSA-15; [7]): evidence of bacterial killing
- Reduction in viable staphylococci in the kidneys (EMRSA-15; [7]): no reduction
- Drop in liver and spleen counts (EMRSA-15; single dose of 2.0 mg/kg in mice): approximately 2.0 log
